Tests used:
[1] = tested on: knockout E. coli strain; type: cell-based; settings: LB medium, acifluorfen 1 mM, flumioxazin 0.5 mM, lactofen 0.5 mM, fomesafen 1 mM, S-3100 100 μM
[2] = tested on: R0 transgenic maize plants; test: CTP-PPO herbicide tolerance evaluation in R0 transgenic maize (S-3100); type: in vivo
Procedure: R0 plants each containing a unique transformation event were sprayed with 40 g ai/ha or 80 g ai/ha of S-3100 at approximately the V5 growth stage and injury ratings were taken 4-7 days after treatment. The number of plants with ≤10% injury (highly tolerant) or ≤20% injury (tolerant) of the total number of sprayed plants was recorded. Plants that were determined to be single-copy events and that passed spray at ≤20% injury were advanced to selfing and outcrossing.

[3] = tested on: R1 transgenic cotton plants; test: R1 cotton greenhouse dicamba injury; settings: dicamba 1120 g ai/ha at V4; rated 9 days after treatment; DMO SEQ ID NO:18
Excerpt: Ten R1 seeds per event from 10 events for each construct and seed from DP393 cotton was planted to evaluate crop tolerance to post-emergence application of dicamba. Dicamba (Clarity) was applied at the V4 stage at 1120 g ai/ha. Crop injury percent ratings were taken 9 days after the treatment.

[4] = tested on: R1 transgenic soybean plants; test: R1 soybean greenhouse dicamba injury; settings: dicamba 1120 g ai/ha at V4; rated 10 days after treatment; DMO SEQ ID NO:18
Excerpt: Transgenic soybean plants were generated with two DNA constructs that were identical except for the APG6 CTP. The first DNA construct had APG6 (SEQ ID NO:1) operably linked to DMO (SEQ ID NO:18). The second DNA construct had the optimized APG6 (SEQ ID NO:2) operably linked to DMO (SEQ ID NO:18). Each DNA construct was used to transform A3555 soybean by Agrobacterium mediated transformation methods. Following transformation, R0 transgenic plants containing a single copy of the transgene were identified by PCR assay. Single-copy R0 plants were grown in greenhouse, and R1 seed was harvested. Ten R1 seeds per event for 4 events generated using each of the two DNA constructs and AG3555 seed was planted for evaluation of crop tolerance to post-emergence dicamba treatment under standard greenhouse growth conditions. Dicamba (Clarity) was applied at the V4 stage at 1120 g ai/ha. Crop injury ratings were taken 10 days after the treatment.

[5] = tested on: transgenic single-copy R0 soybean plants; test: S-3100 efficacy evaluation in R0 soybean; settings: PPO H_N90; 20 g ai/ha S-3100 at about V3; 14 days after treatment
Excerpt: Transgenic single-copy R0 plants, each representing a unique event, were sprayed in the greenhouse with the herbicide treatment 20 g ai/ha S-3100 applied at approximately the V3 stage. Injury ratings were taken 14 days after treatment as the number that were deemed highly tolerant (≤10% injury) or tolerant (≤20% injury).

[6] = tested on: transgenic Brassica napus plants; test: Dicamba tolerance in R0 Brassica napus, greenhouse; settings: R0 plants with one copy with vector backbone or two copies, tolerant = injury 20% or less, 21 days
Procedure: Brassica napus variety 65037 Restorer line was used for Agrobacterium-mediated transformation and R0 plants were grown in the greenhouse.
Dicamba tolerance was assessed using R0 plants with one copy of transgene with vector backbone or two copies of transgene. Dicamba tolerance was designated as dicamba injury of 20% or less under greenhouse conditions.
Dicamba tolerance was assessed on R0 plants with a one copy of the transgene. Plants were sprayed in the greenhouse with dicamba (Clarity) at 1 lb ae/acre (2× rate), and dicamba tolerance was determined 14 to 21 days later.

[7] = construct configuration 17, PPO H_N40, S-3100 80 g ai/ha
[8] = construct configuration 17, PPO H_N90, S-3100 40 g ai/ha
[9] = construct configuration 18, PPO H_N40, S-3100 80 g ai/ha
[10] = construct configuration 19, PPO H_N40, S-3100 80 g ai/ha

B1: WH_PPO: protoporphyrinogen oxidase from Amaranthus tuberculatus (waterhemp), SEQ ID NO:60 (protein, listed as Amaranthus tuberculatus)
chain: MGNISEREEPTSAKRVAVVGAGVSGLAAAYKLKSHGLSVTLFEADSRAGGKLKTVKKDGFIWDEGANTMTESEAEVSSLIDDLGLREKQQLPISQNKRYIARDGLPVLLPSNPAALLTSNILSAKSKLQIMLEPFLWRKHNATELSDEHVQESVGEFFERHFGKEFVDYVIDPFVAGTCGGDPQSLSMHHTFPEVWNIEKRFGSVFAGLIQSTLLSKKEKGGENASIKKPRVRGSFSFQGGMQTLVDTMCKQLGEDELKLQCEVLSLSYNQKGIPSLGNWSVSSMSNNTSEDQSYDAVVVTAPIRNVKEMKIMKFGNPFSLDFIPEVTYVPLSVMITAFKKDKVKRPLEGFGVLIPSKEQHNGLKTLGTLFSSMMFPDRAPSDMCLFTTFVGGSRNRKLANASTDELKQIVSSDLQQLLGTEDEPSFVNHLFWSNAFPLYGHNYDSVLRAIDKMEKDLPGFFYAGNHKGGLSVGKAMASGCKAAELVISYLDSHIYVKMDEKTA
For B1, the “growth of knockout E. coli strain expressing the PPO in the presence of a PPO herbicide” value [1] was “sensitive”.

B2: APG6: Arabidopsis thaliana albino and pale green (APG6) chloroplast transit peptide, SEQ ID NO:1, tested linked to DMO or PPO (protein, listed as Arabidopsis thalinana)
chain: MATATTTATAAFSGVVSVGTETRRIYSFSHLQPSAAFPAKPSSFKSLKLKQSARLTRRLDHRPFVVRC
For B2, the “≤10% injury (percent of plants)” value [2, 7] was “(37.5%)”, the “≤10% injury (plants of total sprayed)” value [2, 7] was 42/112 and the “≤20% injury (percent of plants)” value [2, 7] was “(58%)”. The “≤20% injury (plants of total sprayed)” value [2, 7] was 65/112, the “≤10% injury (percent of plants)” value [2, 8] was “(49.1%)” and the “≤10% injury (plants of total sprayed)” value [2, 8] was 55/112. The “≤20% injury (percent of plants)” value [2, 8] was 56.3%), the “≤20% injury (plants of total sprayed)” value [2, 8] was 63/112 and the “≤10% injury (percent of plants)” value [2, 9] was “(40.2%)”. For the same molecule, the “≤10% injury (plants of total sprayed)” value [2, 9] was 45/112, the “≤20% injury (percent of plants)” value [2, 9] was “(58.9%)” and the “≤20% injury (plants of total sprayed)” value [2, 9] was 66/112. For the same molecule, the “≤10% injury (percent of plants)” value [2, 10] was “(21.4%)”, the “≤10% injury (plants of total sprayed)” value [2, 10] was 12/56 and the “≤20% injury (percent of plants)” value [2, 10] was “(41.1%)”. For the same molecule, the “≤20% injury (plants of total sprayed)” value [2, 10] was 23/56, the “dicamba % Injury, V4 stage” value [3] was 2.6% and the “Dicamba Injury, V4 stage” value [4] was 3.6%. The “≤10% injury (events of total, highly tolerant)” value [5] was 3/14, the “≤10% injury (percent of unique events)” value [5] was 21.4% and the “≤20% injury (events of total, tolerant)” value [5] was 8/14. The “≤20% injury (percent of unique events)” value [5] was 57.1%, the “2X Tolerant events” value ([6]; dicamba 1 lb ae/acre) was 7/14 and the “4X Tolerant events” value ([6]; dicamba 2 lb ae/acre) was 6/18.

Reference: patent US10563220B2, “Compositions and methods for efficient targeting of transgenes” (priority 2015, dated 2020)
